{"source": "patent US20210338852A1", "about": "(NIHON MEDI PHYSICS, published 2021)", "binders": {"B1": {"name": "^225Ac-labeled anti-MUC5AC humanized antibody prepared using ^225Ac-labeled DOTAGA-DBCO (monovalent antibody; H01L03) (antibody, human IgG1, kappa, V domains shown)", "VH": "EVQLLESGGGLVQPGGSLRLSCAASGFTFSNYGMSWVRQAPGKGLEWVSTISNSGRYTYFPDSVKGRFTISRDNSKNTLYLQMNSLRAEDTALYYCTRHLDYANYDAMDYWGQGTLVTVSS", "VL": "DIQMTQSPSSLSASVGDRVTITCRASKSVTTSDFSYMHWYQQKPGKSPKLLIYLASNLESGVPSRFSGSGSGTDFSLTISSLQPEDFATYYCQHSREFPWTFGGGTKVEIKR", "modifications": "Fc region site-specifically modified (Lys252, Eu numbering) by one molecule per antibody of antibody-modification peptide (SEQ ID NO: 10 with Xaa2 = lysine, disulfide between its two cysteines, N-terminal diglycolic acid-PEG8-ethyl azide); azide click-reacted with ^225Ac-chelated DOTAGA-DBCO", "notes": "also called RI-labeled anti-MUC5AC humanized antibody prepared using ^225Ac-labeled DOTAGA-DBCO; ^225Ac-labeled antibody"}, "B2": {"name": "^89Zr-labeled anti-MUC5AC humanized antibody prepared using ^89Zr-labeled DOTAGA-DBCO (monovalent antibody; H01L03) (antibody, human IgG1, kappa, V domains shown)", "VH": "B1 VH", "VL": "B1 VL", "modifications": "Fc region site-specifically modified (Lys252, Eu numbering) by one molecule per antibody of antibody-modification peptide (SEQ ID NO: 10 with Xaa2 = lysine, disulfide between its two cysteines, N-terminal diglycolic acid-PEG8-ethyl azide); azide click-reacted with ^89Zr-chelated DOTAGA-DBCO", "notes": "also called RI-labeled anti-MUC5AC humanized antibody prepared using ^89Zr-labeled DOTAGA-DBCO; ^89Zr complex-labeled antibody"}, "B3": {"name": "^89Zr-labeled anti-MUC5AC humanized antibody prepared using ^89Zr-labeled DOTA-Bn-DBCO (monovalent antibody; H01L03) (antibody, human IgG1, kappa, V domains shown)", "VH": "B1 VH", "VL": "B1 VL", "modifications": "Fc region site-specifically modified (Lys252, Eu numbering) by one molecule per antibody of antibody-modification peptide (SEQ ID NO: 10 with Xaa2 = lysine, disulfide between its two cysteines, N-terminal diglycolic acid-PEG8-ethyl azide); azide click-reacted with ^89Zr-chelated DOTA-Bn-DBCO (formula L1-4)", "notes": "also called RI-labeled anti-MUC5AC humanized antibody prepared using ^89Zr-labeled DOTA-Bn-DBCO"}}, "key": {"[1]": {"biological_target": "T1, mucin subtype 5AC (MUC5AC) (human (from transplanted human …, UniProt P98088 28-5654, limits assumed))", "T1 construct": "Secretory mucin glycoprotein; target present in tumor tissue sections, not as purified protein", "experiment": "in vitro autoradiography; mean of small ROIs in MUC5AC positive vs negative tumor sections"}, "[2]": {"biological_target": "T1, mucin subtype 5AC (MUC5AC)", "experiment": "in vitro autoradiography; whole-section ROI of MUC5AC positive vs negative tumor sections"}}}
{"binder": "B1", "values": [{"measurement": "binding ratio to the MUC5AC positive tumor and the negative tumor", "setting": "[1]", "value": 6.5, "unit": "fold"}]}
{"binder": "B2", "values": [{"measurement": "binding ratio to the MUC5AC positive tumor and the negative tumor", "setting": "[2]", "value": 138, "unit": "fold"}]}
{"binder": "B3", "values": [{"measurement": "binding ratio to the MUC5AC positive tumor and the negative tumor", "setting": "[2]", "value": 151, "unit": "fold"}]}
